Reference: the supplement of paper PMC7125110
± gives the standard error. For part of these data: Variants at the floor of the assay were thinned out.

B1: glmS ribozyme (parent)
chain: AUAAAAGCGCCAGAACUACAGAAAUGUAGUUGACGAGGAGGAGGUUUAUCGAAUUUUCGGCGGAUGCCUCCAAA

Assays:
Conditions in all cases: with glucosamine-6-phosphate
glucosamine-6-phosphate [1] = variants of: B1; test: kcat; higher = faster cleavage; RNA array
Outline: (§1)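 A hybridised Cy3 probe tracked barcoded ribozyme variants, transcribed in situ by E. coli RNA polymerase on sequenced MiSeq chips, at 37 °C. The variants received 40 μM to 10 mM glucosamine-6-phosphate in HEPES/KCl/Mg(OAc)2 buffer. kobs came from decay fits and kcat and KM from weighted Michaelis–Menten fits.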

glucosamine-6-phosphate [2] = variants of: B1; test: KM; higher = weaker cofactor use; RNA array
Outline: as §1

glucosamine-6-phosphate [3] = variants of: B1; test: self-cleavage kobs at 40 uM GlcN6P; higher = faster cleavage; RNA array
Outline: as §1

glucosamine-6-phosphate [4] = variants of: B1; test: self-cleavage kobs at 160 uM GlcN6P; higher = faster cleavage; RNA array
Outline: as §1

glucosamine-6-phosphate [5] = variants of: B1; test: self-cleavage kobs at 640 uM GlcN6P; higher = faster cleavage; RNA array
Outline: as §1

glucosamine-6-phosphate [6] = variants of: B1; test: self-cleavage kobs at 2500 uM GlcN6P; higher = faster cleavage; RNA array
Outline: as §1

glucosamine-6-phosphate [7] = variants of: B1; test: self-cleavage kobs at 10000 uM GlcN6P; higher = faster cleavage; RNA array
Outline: as §1

Row | Variant | kcat (glucosamine-6-phosphate [1]) | KM (glucosamine-6-phosphate [2]) | self-cleavage kobs at 40 uM GlcN6P (glucosamine-6-phosphate [3]) | self-cleavage kobs at 160 uM GlcN6P (glucosamine-6-phosphate [4]) | self-cleavage kobs at 640 uM GlcN6P (glucosamine-6-phosphate [5]) | self-cleavage kobs at 2500 uM GlcN6P (glucosamine-6-phosphate [6]) | self-cleavage kobs at 10000 uM GlcN6P (glucosamine-6-phosphate [7])
1 | AUAAAAUCGCCAGUACUACAGAAAUGUAAUUGACGAUGAGGAGGUUUAUCGAAUUUUCGGGGGAUGCCCCCAAA | 0.000491 ± 3.7e-05 s⁻¹ | 143 ± 19 µM | 0.000105 ± 2.3e-05 s⁻¹ | 0.000282 ± 7.4e-05 s⁻¹ | 0.000389 ± 0.00014 s⁻¹ | 0.000446 ± 0.00019 s⁻¹ | 
2 | AUAAAAGCGCCAGAACUACAGAAAUGUAGUUGACGAGGAGGAGGUUUAUCGAAUUUUCGGCGGAAGCCACCAAA | 7.76e-05 ± 5.6e-06 s⁻¹ | 134 ± 50 µM |  | 4.06e-05 ± 1.5e-05 s⁻¹ | 6.97e-05 ± 1.3e-05 s⁻¹ | 7.08e-05 ± 1.2e-05 s⁻¹ | 
3 | AUAAAAGCGCCAGAACUACAGAAAUGUAGUUGACGAGGAGGUGGUUUAUCGAAUUUUCGGCGGAUGCCUGCAAA | 2.5e-05 ± 2e-06 s⁻¹ | 979 ± 380 µM |  |  |  |  | 2.35e-05 ± 9.3e-06 s⁻¹
4 | AUAAAAGCGCCAGAACUACAGAAAUGUACUUGACGAGGAGGAGGUUUAUCGAUUUUUCGGCGGAUGCCUCCAAA | 0.00163 ± 0.00038 s⁻¹ | 1950 ± 640 µM | 5.34e-05 ± 1.1e-05 s⁻¹ | 0.000111 ± 1.9e-05 s⁻¹ | 0.000383 ± 6.3e-05 s⁻¹ | 0.000902 ± 0.0002 s⁻¹ | 0.00141 ± 0.00024 s⁻¹
5 | AUAAAAGCGCCAGAACUACAGAAAUGUAGUUGACGAGGAGAAGGUUUAUCGAAUUUUCGGCGGAUGCCUCGAAA | 0.000168 ± 7.8e-06 s⁻¹ | 1080 ± 150 µM |  |  | 6.55e-05 ± 9.8e-06 s⁻¹ | 0.000106 ± 2.1e-05 s⁻¹ | 0.000154 ± 1.4e-05 s⁻¹
6 | AUAAAAGCGCCAGAACUACAGAAAUGUAGCUGACGAGGAGGAGGCUUAUCGAAUUUUCGGCGGAUGCCUCCAAA | 3.55e-05 ± 1.6e-05 s⁻¹ |  | < 1e-05 s⁻¹ |  |  | 4.35e-05 ± 2.1e-05 s⁻¹ | 
7 | AUAAAAGCGCCAGAACUACAGAAAUGUAGUUAACGAGGAGGAGGUUCAUCGAAUUUUCGGCGGAUGCCUCCAAA | 0.000343 ± 5.5e-05 s⁻¹ | 2450 ± 760 µM |  |  | 7.19e-05 ± 1.5e-05 s⁻¹ | 0.000185 ± 2.3e-05 s⁻¹ | 0.000258 ± 4.4e-05 s⁻¹
8 | AUAAAAGCGCCAGAACUACAGAAAUGUAGUUGACGAGGAGGAGGUUUAUCGAAUAUUCGGCGGACGACUCCAAA | 0.000108 ± 1.2e-05 s⁻¹ |  |  |  | 8.44e-05 ± 2.9e-05 s⁻¹ | 8.42e-05 ± 2.6e-05 s⁻¹ | 0.000114 ± 2.4e-05 s⁻¹
9 | AUAAAAGCGCCAGAACUACAGAAAUGUAGUUGACGAGGAGGAGGUUUAUUGAAUUUUCGUCGGAUGCCUUCAAA | 1.49e-05 ± 6e-06 s⁻¹ |  |  |  |  |  | 
10 | AUAAAAGCGCCAGAACUACAGAAAUGUAGUUGACGAGGAGGAGCUUUAUCGAUUUUUCGGCGGAUGCCUCCAAA | 7.99e-05 ± 9.3e-07 s⁻¹ | 1170 ± 57 µM |  |  |  | 5.52e-05 ± 1.4e-05 s⁻¹ | 7.13e-05 ± 1.1e-05 s⁻¹
11 | AUAAAAGCGCCAGAACUACAGAAAUGUAGUUGACGAGUAGGAGGUUUAUCGAAUUUUCGGCGGAUGACUCCAAA | 1.4e-05 ± 1.8e-06 s⁻¹ |  |  |  |  |  | 
12 | AUAAAAGCGCCAGAACUACAGAAAUGUAGUUGCCGAGGAGUAGGUUUAUCGAAUUUUCGGCGGAUGCCUCCAAA | < 1e-05 s⁻¹ |  |  |  | < 1e-05 s⁻¹ |  | 
13 | AUAAAAGCGCCAGAAGUACAGAAAUGUAGUUGAUGAGGAGGAGGUUUAUCGAAUUUUCGGCGGAUGCCUCCAAA | < 1e-05 s⁻¹ |  | < 1e-05 s⁻¹ | < 1e-05 s⁻¹ | < 1e-05 s⁻¹ |  | < 1e-05 s⁻¹
14 | AUAAAAGCGCCAGAACUACAGAAAUGUAGUUGACGAGGAGGAGGUUUAUCGAAUUUUCGGCGGAUGCGUACAAA | < 1e-05 s⁻¹ |  | < 1e-05 s⁻¹ |  |  |  | < 1e-05 s⁻¹
15 | AUAAAAGCGCCAGGACUACAGAAAUGUAGUUGACGAGGAGGAGGUUUAUCGAAUUAUCGGCGGAUGCCUCCAAA | 0.121 ± 0.022 s⁻¹ | 1930 ± 400 µM | 0.00249 ± 0.00036 s⁻¹ | 0.00984 ± 0.0021 s⁻¹ | 0.0275 ± 0.0058 s⁻¹ | 0.0642 ± 0.024 s⁻¹ | 0.126 ± 0.053 s⁻¹
16 | AUAAAAGCGCCAGAACUACAGAAAUGUAGUUGACGAGGAGGAGGUUUAUCGAUAUUUCGGCGGAUGCCUCCAAA | 0.0314 ± 0.0026 s⁻¹ | 1760 ± 180 µM | 0.000727 ± 0.00011 s⁻¹ | 0.00236 ± 0.00084 s⁻¹ | 0.00817 ± 0.0019 s⁻¹ | 0.0161 ± 0.0071 s⁻¹ | 0.0279 ± 0.0062 s⁻¹
17 | AUAAAAGCGCCAGAACUACAGAAAUGUAGUUGACGCGGAGGAGGUUUAUCGAAUUUUCGGCGGAUGCCUUCAAA | < 1e-05 s⁻¹ |  | < 1e-05 s⁻¹ |  |  |  | 
18 | AUAAAAGCGCCAGAACUACAGAAAUGUAGCUGACGAGGAGGAGGUUUAUCGAAUUUUCGGCGGAGGCCUCCAAA | 7.96e-05 ± 3.5e-06 s⁻¹ | 1130 ± 230 µM |  |  | 3.09e-05 ± 1e-05 s⁻¹ | 4.99e-05 ± 1.1e-05 s⁻¹ | 7.23e-05 ± 6.6e-06 s⁻¹
